Results taken from the supplement of paper PMC11246515.
± gives the standard deviation of the averaged measurements.

Assay: total protein half-life in vivo (active degradation + dilution); higher = more stable protein
[1] = E. coli NCM3722 delta-clpP, growth: N-lim chemostat, doubling time 6 h
[2] = wild type E. coli NCM3722, growth: N-lim chemostat, doubling time 12 h
[3] = E. coli NCM3722 delta-clpP delta-lon delta-hslV, growth: N-lim chemostat, doubling time 6 h
[4] = E. coli NCM3722 delta-hslV, growth: N-lim chemostat, doubling time 6 h
[5] = E. coli NCM3722 delta-lon, growth: N-lim chemostat, doubling time 6 h
[6] = E. coli NCM3722 delta-smpB, growth: N-lim chemostat, doubling time 6 h
[7] = wild type E. coli NCM3722, growth: C-lim chemostat, doubling time 3 h
[8] = wild type E. coli NCM3722, growth: C-lim chemostat, doubling time 6 h
[9] = wild type E. coli NCM3722, growth: C-lim chemostat, doubling time 12 h
[10] = wild type E. coli NCM3722, growth: N-lim chemostat, doubling time 6 h
[11] = wild type E. coli NCM3722, growth: P-lim chemostat, doubling time 6 h
[12] = wild type E. coli NCM3722, growth: P-lim chemostat, doubling time 12 h

Sequence | total protein half-life in vivo [1] | total protein half-life in vivo [2] | total protein half-life in vivo [3] | total protein half-life in vivo [4] | total protein half-life in vivo [5] | total protein half-life in vivo [6] | total protein half-life in vivo [7] | total protein half-life in vivo [8] | total protein half-life in vivo [9] | total protein half-life in vivo [10] | total protein half-life in vivo [11] | total protein half-life in vivo [12]
MVIGPFINASAVLLGGVLGALLSQRLPERIRVSMTSIFGLASLGIGILLVVKCANLPAMVLATLLGALIGEICLLEKGVNTAVAKAQNLFRHSRKKPAHESFIQNYVAIIVLFCASGTGIFGAMNEGMTGDPSILIAKSFLDFFTAMIFACSLGIAVSVISIPLLIIQLTLAWAAALILPLTTPSMMADFSAVGGLLLLATGLRICGIKMFPVVNMLPALLLAMPLSAAWTAWFA | 6.45 h | 10.8 h |  |  |  |  |  |  |  |  |  | 
MVIKAQSPAGFAEEYIIESIWNNRFPPGTILPAERELSELIGVTRTTLREVLQRLARDGWLTIQHGKPTKVNNFWETSGLNILETLARLDHESVPQLIDNLLSVRTNISTIFIRTAFRQHPDKAQEVLATANEVADHADAFAELDYNIFRGLAFASGNPIYGLILNGMKGLYTRIGRHYFANPEARSLALGFYHKLSALCSEGAHDQVYETVRRYGHESGEIWHRMQKNLPGDLAIQGR [P0A8V6] | 5.72 ± 0.28 h | 10.3 ± 0.15 h | 5.22 ± 0.34 h | 5.12 ± 0.56 h | 6.05 ± 0.6 h | 5.01 ± 0.18 h | 2.88 ± 0.091 h | 6.27 ± 0.67 h | 9.92 ± 0.94 h | 5.93 ± 0.23 h | 4.58 ± 0.83 h | 8.62 ± 1.3 h
MVKKSEFERGDIVLVGFDPASGHEQQGAGRPALVLSVQAFNQLGMTLVAPITQGGNFARYAGFSVPLHCEEGDVHGVVLVNQVRMMDLHARLAKRIGLAADEVVEEALLRLQAVVE |  | 6.76 h |  |  |  |  |  | 6.08 h |  |  |  | 10.7 h
MVKSTPCITIDFMNMSQLTERTFTPSESLSSLSLFLSLARGQCRPGKFWHRRSFRQKFLLRSLIMPRLSVEWMNELSHWPNLNVLLTRQPRLPVRLHRPYLAANLSRKQLLEALRYHYALLRECMSAEEFSLYLNTPGLQLAKLEGKNGEQFTLELTMMISMDKEGDSTILFRNSEGIPLAEITFTLCEYQGKRTMFIGGLQGAKWEIPHQEIQNATKACHGLFPKRLVMEAACLFAQRLQVEQIIAVSNETHIYRSLRYRDKEGKIHADYNAFWESVGGVCDAERHYRLPAQIARKEIAEIASKKRAEYRRRYEMLDAIQPQMATMFRG |  | 1.2 ± 0.25 h | 3.06 ± 0.041 h | 0.723 h | 1.38 ± 0.35 h | 0.646 ± 0.039 h | 0.953 ± 0.067 h | 0.7307 ± 0.0013 h | 1.31 h | 1.16 ± 0.38 h |  | 2.33 h
MVLGKPQTDPTLEWFLSHCHIHKYPSKSTLIHQGEKAETLYYIVKGSVAVLIKDEEGKEMILSYLNQGDFIGELGLFEEGQERSAWVRAKTACEVAEISYKKFRQLIQVNPDILMRLSAQMARRLQVTSEKVGNLAFLDVTGRIAQTLLNLAKQPDAMTHPDGMQIKITRQEIGQIVGCSRETVGRILKMLEDQNLISAHGKTIVVYGTR [P0ACJ8] | 5.17 ± 0.55 h | 7.59 ± 0.18 h | 5.31 ± 0.51 h | 4.68 ± 0.23 h | 4.86 ± 0.09 h | 4.55 ± 0.33 h | 2.92 ± 0.22 h | 5.84 ± 0.064 h | 10 ± 0.63 h | 4.582 ± 0.038 h | 5.09 ± 0.27 h | 9.72 ± 0.62 h
MVNLVIVSHSSRLGEGVGELARQMLMSDSCKIAIAAGIDDPQNPIGTDAVKVMEAIESVADADHVLVMMDMGSALLSAETALELLAPEIAAKVRLCAAPLVEGTLAATVSAASGADIDKVIFDAMHALEAKREQLGLPSSDTEISDTCPAYDEEARSLAVVIKNRNGLHVRPASRLVYTLSTFNADMLLEKNGKCVTPESINQIALLQVRYNDTLRLIAKGPEAEEALIAFRQLAEDNFGETEEVAPPTLRPVPPVSGKAFYYQPVLCTVQAKSTLTVEEEQDRLRQAIDFTLLDLMTLTAKAEASGLDDIAAIFSGHHTLLDDPELLAAASELLQHEHCTAEYAWQQVLKELSQQYQQLDDEYLQARYIDVDDLLHRTLVHLTQTKEELPQFNSPTILLAENIYPSTVLQLDPAVVKGICLSAGSPVSHSALIARELGIGWICQQGEKLYAIQPEETLTLDVKTQRFNRQG | 5.24 ± 0.96 h | 6.3 ± 0.85 h | 5.07 ± 0.8 h | 4.67 ± 0.96 h | 4.07 ± 0.32 h | 3.51 ± 0.52 h | 3.39 ± 0.48 h | 6.02 ± 0.54 h | 10 ± 0.98 h | 4.01 ± 0.29 h | 5.33 ± 0.27 h | 11.4 ± 1.5 h
MVPSTFSRLKAARCLPVVLAALIFAGCGTHTPDQSTAYMQGTAQADSAFYLQQMQQSSDDTRINWQLLAIRALVKEGKTGQAVELFNQLPQELNDAQRREKTLLAVEIKLAQKDFAGAQNLLAKITPADLEQNQQARYWQAKIDASQGRPSIDLLRALIAQEPLLGAKEKQQNIDATWQALSSMTQEQANTLVINADENILQGWLDLQRVWFDNRNDPDMMKAGIADWQKRYPNNPGAKMLPTQLVNVKAFKPASTNKIALLLPLNGQAAVFGRTIQQGFEAAKNIGTQPVAAQVAAAPAADVAEQPQPQTVDGVASPAQASVSDLTGEQPAAQPVPVSAPATSTAAVSAPANPSAELKIYDTSSQPLSQILSQVQQDGASIVVGPLLKNNVEELLKSNTPLNVLALNQPENIENRVNICYFALSPEDEARDAARHIRDQGKQAPLVLIPRSSLGDRVANAFAQEWQKLGGGTVLQQKFGSTSELRAGVNGGSGIALTGSPITLRATTDSGMTTNNPTLQTTPTDDQFTNNGGRVDAVYIVATPGEIAFIKPMIAMRNGSQSGATLYASSRSAQGTAGPDFRLEMEGLQYSEIPMLAGGNLPLMQQALSAVNNDYSLARMYAMGVDAWSLANHFSQMRQVQGFEINGNTGSLTANPDCVINRNLSWLQYQQGQVVPVS | 5.812 ± 0.034 h | 13.1 ± 1.8 h | 5.639 ± 0.023 h | 5.89 ± 0.37 h | 6.49 ± 0.16 h | 6.45 ± 0.83 h | 3.11 ± 0.16 h | 5.614 ± 0.025 h | 11.2 ± 1 h | 6.03 ± 0.11 h | 5.91 ± 0.45 h | 11.5 ± 0.52 h
MVQRITIAPQGPEFSRFVMGYWRLMDWNMSARQLVSFIEEHLDLGVTTVDHADIYGGYQCEAAFGEALKLAPHLRERMEIVSKCGIATTAREENVIGHYITDRDHIIKSAEQSLINLATDHLDLLLIHRPDPLMDADEVADAFKHLHQSGKVRHFGVSNFTPAQFALLQSRLPFTLATNQVEISPVHQPLLLDGTLDQLQQLRVRPMAWSCLGGGRLFNDDYFQPLRDELAVVAEELNAGSIEQVVYAWVLRLPSQPLPIIGSGKIERVRAAVEAETLKMTRQQWFRIRKAALGYDVP | 5.59 ± 0.96 h | 8.62 ± 0.69 h | 5.21 ± 0.14 h | 4.95 ± 0.13 h | 5.07 ± 0.77 h | 4.67 ± 0.12 h | 2.86 ± 0.26 h | 5.71 ± 0.085 h | 9.47 ± 0.64 h | 5 ± 0.25 h | 5.79 ± 0.17 h | 10.9 ± 0.49 h
MVSLEKNDHLMLARQLPLKSVALILAGGRGTRLKDLTNKRAKPAVHFGGKFRIIDFALSNCINSGIRRMGVITQYQSHTLVQHIQRGWSFFNEEMNEFVDLLPAQQRMKGENWYRGTADAVTQNLDIIRRYKAEYVVILAGDHIYKQDYSRMLIDHVEKGARCTVACMPVPIEEASAFGVMAVDENDKIIEFVEKPANPPSMPNDPSKSLASMGIYVFDADYLYELLEEDDRDENSSHDFGKDLIPKITEAGLAYAHPFPLSCVQSDPDAEPYWRDVGTLEAYWKANLDLASVVPELDMYDRNWPIRTYNESLPPAKFVQDRSGSHGMTLNSLVSGGCVISGSVVVQSVLFSRVRVNSFCNIDSAVLLPEVWVGRSCRLRRCVIDRACVIPEGMVIGENAEEDARRFYRSEEGIVLVTREMLRKLGHKQER [P0A6V1] |  | 9.99 ± 0.24 h | 6.16 ± 0.19 h | 6.42 ± 1 h | 5.94 ± 0.29 h | 5.54 ± 0.52 h | 3.34 ± 0.11 h | 6.04 ± 0.72 h | 12.2 ± 0.15 h | 5.535 ± 0.042 h | 6.46 ± 0.65 h | 12.2 ± 0.32 h
MVTHRQRYREKVSQMVSWGHWFALFNILLSLVIGSRYLFIADWPTTLAGRIYSYVSIIGHFSFLVFATYLLILFPLTFIVGSQRLMRFLSVILATAGMTLLLIDSEVFTRFHLHLNPIVWQLVINPDENEMARDWQLMFISVPVILLLELVFATWSWQKLRSLTRRRRFARPLAAFLFIAFIASHVVYIWADANFYRPITMQRANLPLSYPMTARRFLEKHGLLDAQEYQRRLIEQGNPDAVSVQYPLSELRYRDMGTGQNVLLITVDGLNYSRFEKQMPALAGFAEQNISFTRHMSSGNTTDNGIFGLFYGISPSYMDGILSTRTPAALITALNQQGYQLGLFSSDGFTSPLYRQALLSDFSMPSVRTQSDEQTATQWINWLGRYAQEDNRWFSWVSFNGTNIDDSNQQAFARKYSRAAGNVDDQINRVLNALRDSGKLDNTVVIITAGRGIPLSEEEETFDWSHGHLQVPLVIHWPGTPAQRINALTDHTDLMTTLMQRLLHVSTPASEYSQGQDLFNPQRRHYWVTAADNDTLAITTPKKTLVLNNNGKYRTYNLRGERVKDEKPQLSLLLQVLTDEKRFIAN [P0AD27] |  | 12.9 ± 1.1 h | 6.51 ± 0.23 h |  | 5.92 ± 0.086 h | 6.0496 ± 0.0024 h | 3.37 ± 0.44 h | 5.62 ± 0.63 h | 12.8 ± 0.27 h | 6.18 ± 0.89 h | 6.34 ± 0.1 h | 11.8 ± 0.67 h
MVTKKQSRVPGRPRRFAPEQAISAAKVLFHQKGFDAVSVAEVTDYLGINPPSLYAAFGSKAGLFSRVLNEYVGTEAIPLADILRDDRPVGECLVEVLKEAARRYSQNGGCAGCMVLEGIHSHDPQARDIAVQYYHAAETTIYDYIARRHPQRAQCVTDFMSTVMSGLSAKAREGHSIEQLCATAAMAGEAIKTILEE | 4.19 ± 0.7 h | 6.59 ± 0.21 h | 4.87 ± 0.78 h |  | 5.66 ± 2.6 h | 2.87 ± 0.24 h | 2.66 ± 0.17 h | 4.19 h | 4.59 ± 4.8 h | 3.48 ± 0.37 h |  | 6.26 h
